Experiment in all cases: FRET or BRET; GCGR–Rluc8 (or mutants) and βarr1–GFP2 (or mutants) co-transfected 1:1 in HEK293F cells; glucagon 1 pM to 10 μM; HBSS, 20 mM HEPES pH 7.4; coelenterazine 400a; EC50 is that of glucagon in inducing the BRET signal
In general terms: BRET reads energy transfer from a luciferase to a nearby fluorophore.

The target of test [1] is wild-type GCGR with Rluc8 at the C terminus (human) (UniProt P47871).
Test [2] has as its target the GCGR mutations R413A and R414A (as a group, for the printed range of the EC50 shift).
In test [3] the target is T1, wild-type GCGR with Rluc8 at the C terminus (human, UniProt P47871 26-477).
T1 construct: glucagon receptor (GCGR), human, wild type; also called WT; source: HEK293F, transfected, in living cells; not shown: FLAG, N-terminal, kept; Rluc8, C-terminal, kept
T1 sequence (P47871 26-477): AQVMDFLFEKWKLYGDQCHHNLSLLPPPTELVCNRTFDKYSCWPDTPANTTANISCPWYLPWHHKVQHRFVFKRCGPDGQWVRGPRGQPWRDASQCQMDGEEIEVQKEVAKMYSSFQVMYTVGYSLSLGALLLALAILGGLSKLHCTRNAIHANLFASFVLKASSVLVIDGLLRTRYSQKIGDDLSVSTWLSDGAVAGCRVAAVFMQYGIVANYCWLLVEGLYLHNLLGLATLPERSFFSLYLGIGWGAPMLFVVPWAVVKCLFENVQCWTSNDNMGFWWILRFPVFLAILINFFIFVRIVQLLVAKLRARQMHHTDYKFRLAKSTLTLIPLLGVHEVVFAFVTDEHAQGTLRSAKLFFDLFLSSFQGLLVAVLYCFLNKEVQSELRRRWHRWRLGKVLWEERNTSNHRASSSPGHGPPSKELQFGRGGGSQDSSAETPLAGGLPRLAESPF
The conditions noted are these: partners not purified.

Chain of wild-type GCGR with Rluc8 at the C terminus (human) (P47871 26-477): as above

As for “ΔFL, the βarr1 mutant with the turn region of the finger loop removed, with GFP2 at the C terminus (from UniProt P49407 1-418) (natural protein)”, the fold shift of the glucagon EC50 in the GCGR–βarr1 BRET, mutant against wild type in test [1] was found to be 24 fold.
Turning to “human βarr1 with GFP2 at the C terminus (from UniProt P49407 1-418) (natural protein)”, the fold shift of the glucagon EC50 in the GCGR–βarr1 BRET, mutant against wild type in test [2] fell in the range of 112 to 205 fold.

B1: βarr1 3Q (K232Q, R236Q and K250Q) with GFP2 at the C terminus (natural protein, human, UniProt P49407 1-418, looked up)
chain: MGDKGTRVFKKASPNGKLTVYLGKRDFVDHIDLVDPVDGVVLVDPEYLKERRVYVTLTCAFRYGREDLDVLGLTFRKDLFVANVQSFPPAPEDKKPLTRLQERLIKKLGEHAYPFTFEIPPNLPCSVTLQPGPEDTGKACGVDYEVKAFCAENLEEKIHKRNSVRLVIRKVQYAPERPGPQPTAETTRQFLMSDKPLHLEASLDKEIYYHGEPISVNVHVTNNTNKTVKKIQISVQQYADICLFNTAQYQCPVAMEEADDTVAPSSTFCKVYTLTPFLANNREKRGLALDGKLKHEDTNLASSTLLREGANREILGIIVSYKVKVKLVVSRGGLLGDLASSDVAVELPFTLMHPKPKEEPPHREVPENETPVDTNLIELDTNDDDIVFEDFARQRLKGMKDDKEEEEDGTGSPQLNNR
notes: β-arrestin 1 (βarr1), human, triple mutant of the wild type; source: HEK293F, transfected, in living cells; not shown: GFP2, C-terminal, kept
Regarding B1, the “fold drop of glucagon potency in the GCGR–βarr1 BRET, mutant against wild type” value in test [3] came to 15 fold.
